Measurements published in article PMC6062497.
Where “and” joins values, the source holds several entries; their conditions need not be identical. Equal values may be shown once.

Biological target: TRAIL receptors on SK-Mel-3 cells
Conditions: ligand

How did the Kd turn out when “GpL-FLAG-TNC-TRAIL (from UniProt P10039)” was run?
The Kd was 4.82 nM and 2.32 nM.
